Experimental findings from ChEMBL document CHEMBL4680222, “Sensitive fluorogenic substrates for sirtuin deacylase inhibitor discovery” (Eur J Med Chem, 2020) are described below.

Broadly, the Km is the substrate concentration at which the rate is half of its maximum. The Vmax is the top rate of the reaction or transport when substrate is in excess. Usually kcat stands for the maximal rate divided by the concentration of active sites. What is called kcat/Km is the second-order rate constant that governs catalysis at low substrate concentration.

Series [1] concerns CC(=O)N[C@@H](CC(C)C)C(=O)NCC(=O)N[C@@H](CO)C(=O)N[C@@H](CCCCNC(=O)CCC(=O)O)C(=O)Nc1ccc2c(C)cc(=O)oc2c1. Nature of the series: (§1) Substrate activity at human N-terminal His-tagged SIRT5 (34 to 302 residues) expressed in Escherichia coli assessed as Km measured after 1 hr in presence of NAD+ and trypsin by Michaelis-Menten kinetic model based fluorescence assay.
Series [2] relates to CC(=O)N[C@@H](CO)C(=O)N[C@@H](CC(C)C)C(=O)NCC(=O)N[C@@H](CCCCNC(=O)CCC(=O)O)C(=O)Nc1ccc2c(C)cc(=O)oc2c1. The description is as §1.
The subject of series [3] is CC(=O)N[C@@H](Cc1cnc[nH]1)C(=O)N[C@@H](Cc1ccccc1)C(=O)N[C@@H](CO)C(=O)N[C@@H](CCCCNC(=O)CCC(=O)O)C(=O)Nc1ccc2c(C)cc(=O)oc2c1. Described as §1.
Series [4] deals with Cc1cc(=O)oc2cc(NC(=O)[C@H](CCCCNC(=O)CCC(=O)O)NC(=O)OCc3ccccc3)ccc12. Described as §1.
Series [5] has as its system CC(=O)N[C@@H](CC(C)C)C(=O)NCC(=O)N[C@@H](CO)C(=O)N[C@@H](CCCCNC(=O)CCC(=O)O)C(=O)Nc1ccc2c(C)cc(=O)oc2c1. In words: (§2) Substrate activity at human N-terminal His-tagged SIRT5 (34 to 302 residues) expressed in Escherichia coli assessed as Vmax measured after 1 hr in presence of NAD+ and trypsin by Michaelis-Menten kinetic model based fluorescence assay.
The subject of series [6] is CC(=O)N[C@@H](CO)C(=O)N[C@@H](CC(C)C)C(=O)NCC(=O)N[C@@H](CCCCNC(=O)CCC(=O)O)C(=O)Nc1ccc2c(C)cc(=O)oc2c1. The description is as §2.
The test system of series [7] is CC(=O)N[C@@H](Cc1cnc[nH]1)C(=O)N[C@@H](Cc1ccccc1)C(=O)N[C@@H](CO)C(=O)N[C@@H](CCCCNC(=O)CCC(=O)O)C(=O)Nc1ccc2c(C)cc(=O)oc2c1. Described as §2.
Series [8] has as its system Cc1cc(=O)oc2cc(NC(=O)[C@H](CCCCNC(=O)CCC(=O)O)NC(=O)OCc3ccccc3)ccc12. Described as §2.
Series [9] deals with CC(=O)N[C@@H](CC(C)C)C(=O)NCC(=O)N[C@@H](CO)C(=O)N[C@@H](CCCCNC(=O)CCC(=O)O)C(=O)Nc1ccc2c(C)cc(=O)oc2c1. Nature of the series: (§3) Substrate activity at human N-terminal His-tagged SIRT5 (34 to 302 residues) expressed in Escherichia coli assessed as Kcat measured after 1 hr in presence of NAD+ and trypsin by Michaelis-Menten kinetic model based fluorescence assay.
For series [10], the system named is CC(=O)N[C@@H](CO)C(=O)N[C@@H](CC(C)C)C(=O)NCC(=O)N[C@@H](CCCCNC(=O)CCC(=O)O)C(=O)Nc1ccc2c(C)cc(=O)oc2c1. The series is described as §3.
The subject of series [11] is CC(=O)N[C@@H](Cc1cnc[nH]1)C(=O)N[C@@H](Cc1ccccc1)C(=O)N[C@@H](CO)C(=O)N[C@@H](CCCCNC(=O)CCC(=O)O)C(=O)Nc1ccc2c(C)cc(=O)oc2c1. The series is described as §3.
The subject of series [12] is Cc1cc(=O)oc2cc(NC(=O)[C@H](CCCCNC(=O)CCC(=O)O)NC(=O)OCc3ccccc3)ccc12. The series is described as §3.
Series [13] concerns CC(=O)N[C@@H](CC(C)C)C(=O)NCC(=O)N[C@@H](CO)C(=O)N[C@@H](CCCCNC(=O)CCC(=O)O)C(=O)Nc1ccc2c(C)cc(=O)oc2c1. Nature of the series: (§4) Substrate activity at human N-terminal His-tagged SIRT5 (34 to 302 residues) expressed in Escherichia coli assessed as ratio of Kcat to Km measured after 1 hr in presence of NAD+ and trypsin by Michaelis-Menten kinetic model based fluorescence assay.

The test system of series [14] is CC(=O)N[C@@H](CO)C(=O)N[C@@H](CC(C)C)C(=O)NCC(=O)N[C@@H](CCCCNC(=O)CCC(=O)O)C(=O)Nc1ccc2c(C)cc(=O)oc2c1. The series is described as §4.
In series [15] the test system is CC(=O)N[C@@H](Cc1cnc[nH]1)C(=O)N[C@@H](Cc1ccccc1)C(=O)N[C@@H](CO)C(=O)N[C@@H](CCCCNC(=O)CCC(=O)O)C(=O)Nc1ccc2c(C)cc(=O)oc2c1. Described as §4.
In series [16] the test system is Cc1cc(=O)oc2cc(NC(=O)[C@H](CCCCNC(=O)CCC(=O)O)NC(=O)OCc3ccccc3)ccc12. Described as §4.

Chain of NAD-dependent protein deacylase sirtuin-5, mitochondrial (Homo sapiens), Q9NXA8 (Q9NXA8 whole entry): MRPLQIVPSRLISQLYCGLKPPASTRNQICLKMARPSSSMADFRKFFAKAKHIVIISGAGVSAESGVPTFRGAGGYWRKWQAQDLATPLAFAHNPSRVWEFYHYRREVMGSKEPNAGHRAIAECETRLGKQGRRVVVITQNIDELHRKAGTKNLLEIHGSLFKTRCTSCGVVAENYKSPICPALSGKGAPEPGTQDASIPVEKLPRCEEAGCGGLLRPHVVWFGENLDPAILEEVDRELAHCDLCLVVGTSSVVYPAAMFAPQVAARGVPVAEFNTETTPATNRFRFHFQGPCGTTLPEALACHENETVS

On to “NAD-dependent protein deacylase sirtuin-5, mitochondrial (Homo sapiens), Q9NXA8”, for which the Michaelis constant (Km) in series [1] came to 47.6 µM; in [2], 31.6 µM; in series [3] it was 57.5 µM; in [4], 13.3 µM. The Vmax in series [5] is 116 nM/min; in series [6], 136 nM/min; in [7] it was 141 nM/min; in series [8] it was 21.7 nM/min. In addition, the kcat in series [9] is 38.8 10^-3/s; in series [10], 45.5 10^-3/s; in [11] it was 46.9 10^-3/s; in series [12], 2.6 10^-3/s. For the same substance, the catalytic efficiency (kcat/Km) is 817 M⁻¹ s⁻¹ in [13], 1440 M⁻¹ s⁻¹ in series [14], 815 M⁻¹ s⁻¹ in [15] and 160 M⁻¹ s⁻¹ in [16].
